In IntAct's records for PubMed 21743455:

B1: Wnt inhibitory factor 1 (Homo sapiens), Q9Y5W5 (parent)
chain: MARRSAFPAAALWLWSILLCLLALRAEAGPPQEESLYLWIDAHQARVLIGFEEDILIVSEGKMAPFTHDFRKAQQRMPAIPVNIHSMNFTWQAAGQAEYFYEFLSLRSLDKGIMADPTVNVPLLGTVPHKASVVQVGFPCLGKQDGVAAFEVDVIVMNSEGNTILQTPQNAIFFKTCQQAECPGGCRNGGFCNERRICECPDGFHGPHCEKALCTPRCMNGGLCVTPGFCICPPGFYGVNCDKANCSTTCFNGGTCFYPGKCICPPGLEGEQCEISKCPQPCRNGGKCIGKSKCKCSKGYQGDLCSKPVCEPGCGAHGTCHEPNKCQCQEGWHGRHCNKRYEASLIHALRPAGAQLRQHTPSLKKAEERRDPPESNYIW

Variants of: B1
Conditions: with wnt3a_mouse Wnt3a

Row | Variant | effect of a mutation on the interaction
1 | M77W | decreasing interaction
